Read-outs that look alike come from different tables or passages of the source.

Broadly, the Kd is the equilibrium constant for the complex coming apart. A higher Kd goes with lower affinity. As a reminder, the koff is the first-order rate constant of dissociation. The term kon denotes the second-order rate constant of association. A high value points to faster complex formation.

Assay [1] deals with bovine type I collagen (bovine) (UniProt P02453).
The target is the same in assay [2]. This is another data set of the same source.
Assay [3] shares this target. Kind of assay: SPR, equilibrium responses, one-site-binding nonlinear regression. For orientation: Surface plasmon resonance follows binding to a sensor surface in real time, without labels.
Assay [4] has the same target. As to the kind of experiment: SPR, Scatchard analysis of equilibrium responses; SPR, Scatchard analysis.
For assay [5] the target is unchanged. As to the kind of experiment: SPR, BIAcore 3000, collagen immobilized on CM5 chip.
Assay [6] has the same target. As to the kind of experiment: SPR, from the kinetic rates ka and kd; SPR, from ka and kd.

UniProt P02453, sequence (P02453 162-1217 limits assumed, chain 1 of 2): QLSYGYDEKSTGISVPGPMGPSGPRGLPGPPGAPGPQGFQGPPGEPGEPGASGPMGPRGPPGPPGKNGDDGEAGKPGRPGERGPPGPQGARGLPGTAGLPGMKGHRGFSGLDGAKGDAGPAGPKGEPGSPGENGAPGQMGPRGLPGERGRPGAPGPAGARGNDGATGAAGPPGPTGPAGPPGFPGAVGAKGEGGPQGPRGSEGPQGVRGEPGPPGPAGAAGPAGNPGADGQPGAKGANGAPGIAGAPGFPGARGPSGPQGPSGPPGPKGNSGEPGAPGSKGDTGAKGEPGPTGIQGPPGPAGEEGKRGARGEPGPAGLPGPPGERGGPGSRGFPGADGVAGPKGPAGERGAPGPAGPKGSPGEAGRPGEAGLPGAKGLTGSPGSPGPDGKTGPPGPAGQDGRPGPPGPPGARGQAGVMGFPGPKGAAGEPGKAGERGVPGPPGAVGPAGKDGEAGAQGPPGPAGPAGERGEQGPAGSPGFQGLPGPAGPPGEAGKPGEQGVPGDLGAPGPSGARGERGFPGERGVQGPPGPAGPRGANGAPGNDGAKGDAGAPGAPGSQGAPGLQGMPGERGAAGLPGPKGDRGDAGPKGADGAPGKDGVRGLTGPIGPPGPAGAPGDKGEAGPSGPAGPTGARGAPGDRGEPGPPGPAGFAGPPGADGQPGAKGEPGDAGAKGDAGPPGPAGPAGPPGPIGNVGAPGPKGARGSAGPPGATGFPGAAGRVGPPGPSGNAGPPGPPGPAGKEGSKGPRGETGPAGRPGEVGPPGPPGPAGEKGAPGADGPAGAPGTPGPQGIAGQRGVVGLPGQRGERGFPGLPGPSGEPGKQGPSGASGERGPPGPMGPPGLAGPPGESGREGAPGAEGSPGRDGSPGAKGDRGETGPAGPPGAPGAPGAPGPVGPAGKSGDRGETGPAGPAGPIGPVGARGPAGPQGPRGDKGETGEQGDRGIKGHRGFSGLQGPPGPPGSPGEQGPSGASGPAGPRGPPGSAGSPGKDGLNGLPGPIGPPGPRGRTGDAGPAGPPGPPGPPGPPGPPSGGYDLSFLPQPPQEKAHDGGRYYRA
UniProt P02453, sequence (P02465 80-1117 limits assumed, chain 2 of 2, further chain): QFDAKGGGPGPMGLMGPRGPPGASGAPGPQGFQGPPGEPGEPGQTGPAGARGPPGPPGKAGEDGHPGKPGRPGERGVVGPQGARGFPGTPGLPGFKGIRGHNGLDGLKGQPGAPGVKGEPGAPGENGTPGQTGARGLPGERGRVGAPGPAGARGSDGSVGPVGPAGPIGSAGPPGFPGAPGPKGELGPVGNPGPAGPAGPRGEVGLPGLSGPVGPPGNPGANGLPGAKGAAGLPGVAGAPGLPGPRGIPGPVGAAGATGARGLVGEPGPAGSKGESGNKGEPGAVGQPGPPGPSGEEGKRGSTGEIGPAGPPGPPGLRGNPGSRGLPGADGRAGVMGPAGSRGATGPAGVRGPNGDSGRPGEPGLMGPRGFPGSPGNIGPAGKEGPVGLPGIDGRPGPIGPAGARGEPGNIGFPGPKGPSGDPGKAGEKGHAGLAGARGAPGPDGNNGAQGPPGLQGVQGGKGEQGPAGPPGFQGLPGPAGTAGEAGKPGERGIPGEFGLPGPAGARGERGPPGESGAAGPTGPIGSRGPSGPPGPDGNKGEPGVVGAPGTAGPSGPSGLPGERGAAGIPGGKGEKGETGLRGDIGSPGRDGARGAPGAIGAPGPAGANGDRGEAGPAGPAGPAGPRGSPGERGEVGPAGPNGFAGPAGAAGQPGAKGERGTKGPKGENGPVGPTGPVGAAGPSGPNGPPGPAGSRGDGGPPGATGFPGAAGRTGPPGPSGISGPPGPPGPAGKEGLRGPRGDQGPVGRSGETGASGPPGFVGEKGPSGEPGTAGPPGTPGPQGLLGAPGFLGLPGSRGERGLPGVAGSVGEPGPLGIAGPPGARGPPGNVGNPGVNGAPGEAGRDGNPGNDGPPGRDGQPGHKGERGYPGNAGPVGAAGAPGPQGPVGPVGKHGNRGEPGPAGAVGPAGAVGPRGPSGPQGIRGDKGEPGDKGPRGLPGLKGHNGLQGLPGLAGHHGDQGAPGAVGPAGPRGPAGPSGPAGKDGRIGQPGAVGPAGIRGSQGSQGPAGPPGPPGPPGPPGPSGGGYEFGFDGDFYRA

As to “rBA5258A, recombinant His-tag fusion protein of the A region (amino acid residues 32-366) of BA5258”, the Kd in assay [1] was determined as 30 nM; in assay [2] it was 600 nM; in assay [3] it was 900 nM.
For “rBA0871A, recombinant His-tag fusion protein of the A region (amino acid residues 42-765) of BA0871”, the Kd turned out to be 2400 nM in assay [4], 190 nM in assay [1], 3200 nM in assay [3] and 1600 nM in assay [6]. Further, the koff in assay [5] was found to be 0.0043 s⁻¹. This substance also came in with a kon in assay [5] of 2800 M⁻¹ s⁻¹.

The values above are taken from US20060198852A1.
